Consider 3 molecules from patent publication US20250250593A1, “METHOD FOR PREPARING ALPHA-BRANCHED BETA'-HYDROXY CARBONYL COMPOUNDS BY ENZYMATIC-CATALYZED REDUCTIVE ALDOL REACTION” (Max-Planck-Gesellschaft zur Förderung der Wissenschaften …, priority 2022, published 2025).

In data set [1] the target is T1, Kitasatospora setae crotonyl-CoA carboxylase/reductase (KsCcr), wild type (WT), SEQ ID NO: 1 (Kitasatospora setae, UniProt E4N096).
T1 construct: gene provided by JGI
T1 sequence (E4N096 1-445): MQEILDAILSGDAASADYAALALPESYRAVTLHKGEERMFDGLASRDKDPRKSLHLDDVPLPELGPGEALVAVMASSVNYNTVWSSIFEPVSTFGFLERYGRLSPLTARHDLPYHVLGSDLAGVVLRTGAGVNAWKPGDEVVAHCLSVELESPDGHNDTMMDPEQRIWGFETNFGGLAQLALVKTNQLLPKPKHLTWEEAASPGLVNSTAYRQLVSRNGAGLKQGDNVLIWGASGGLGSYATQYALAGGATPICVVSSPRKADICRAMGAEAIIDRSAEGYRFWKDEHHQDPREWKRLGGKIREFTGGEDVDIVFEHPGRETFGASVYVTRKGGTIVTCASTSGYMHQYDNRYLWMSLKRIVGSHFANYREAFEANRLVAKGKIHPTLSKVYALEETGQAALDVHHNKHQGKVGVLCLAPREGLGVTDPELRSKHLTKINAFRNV
The class given is biochemical. To be noted: apparent turnover rate with formaldehyde as electrophile; 100 mM K2HPO4 pH 8.0, 30 °C; mean ± standard error. The protocol: His-tagged KsCcr and its variants were expressed in E. coli BL21 (DE3). Cells in terrific broth were grown at 37° C. to an OD600=0.8-1.0 upon which expression for 12-16 h at 23° C. was induced by the addition of 500 μM IPTG (Isopropyl-D-β-thiogalactopyranoside). Cells were harvested for 15 min at 7500× g at 4° C. then resuspended in 2 mL of buffer A (50 mM Tris, 500 mM NaCl, 1 M L-Proline, pH=7.5) per gram of pellet. The suspension was treated with […] of DNAse I, 5 mM MgCl2, 10 μg/ml of lysozyme and incubated on ice for 20 min upon which cells were lysed using a sonicator. The lysate was clarified at 45000× g at 4° C. for 40 min and then loaded onto a pre-equilibrated 1 mL HisTrap FF column and washed with 15% buffer B (50 mM Tris, 500 mM NaCl, 1 M L-Proline, 500 mM imidazole, pH=7.5) for 20-30 column volumes until the UV 280 nm reached the baseline level. […]
Formaldehyde stock solution concentration was determined by following the formation of phenylhydrazone at 368 nm (εPhenylhydrazone,368 nm=6.1 mM^−1 cm^−1). […]
For reactions in which the full conversion to the aldol product was achieved assays were performed on a Cary-60 UV/Vis spectrophotometer (Agilent) at 30° C. using quartz cuvettes (1 mm, 3 mm or 10 mm path length; Hellma). […] Kinetic parameters for one substrate were determined by varying its concentration while the others were kept constant at 10 times their KM value.

The test system of another data set is CcCcrPAG. The experiment in a line: Substrate promiscuity screen: enoyl-CoAs with aldehydes, LC-MS. To be noted: six enoyl-CoAs with formaldehyde, acetaldehyde, propionaldehyde, benzaldehyde; with Acx4 and catalase. The class given is biochemical, Caulobacter crescentus. An excerpt:
According to phylogenetic and structural analysis, KsCcr belongs to the ECR-1 subfamily of enzymes that are mainly restricted to short-chain enoyl-CoAs. To increase the substrate scope of reductive aldol reactions, the inventors sought to use a more promiscuous enzyme. To that end, a triple variant of Caulobacter crescentus crotonyl-CoA carboxylase/reductase (CcCcrC146P/1169A/F373G, here CcCcrPAG) was employed that had been engineered to accept a variety of enoyl-CoAs, including short- and long-chain, branched, aromatic, bulky and halogenated analogs. Six different enoyl-CoA substrates (FIG. 4) were synthesized and tested in combination with four different aldehydes (formaldehyde, acetaldehyde, propionaldehyde, benzaldehyde) and by LC-MS.
Assays were performed in 100 mM K2HPO4 pH=8.0 at 30° C. and 10 μL samples were taken at different time points and quenched with 1 μL of 50% formic acid. The samples were spinned at 17000 g for 10 min at 4° C. to precipitate the protein and then analyzed by LC-MS.
Determination of CoA esters was performed using a HRES-LC-MS. […]

The subject of data set [2] is crotonyl-CoA carboxylase/reductase obtained from Caulobacter crescentus (CcCcr). Kind of data set: First empirical data on reductive aldol reaction by CcCcr. The class given is biochemical.

Several values for one entry are separate records, joined by “and”; a condition that tells them apart may be missing. Equal entries are not always repeated.

In the case of `C/C=C/C(=O)SCCNC(=O)CCNC(=O)[C@H](O)C(C)(C)COP(=O)(O)OP(=O)(O)OC[C@H]1O[C@@H](n2cnc3c(N)ncnc32)[C@H](O)[C@@H]1OP(=O)(O)O` [Crotonyl-CoA, crotonyl-CoA], in data set [1], the Kcat is 30 s⁻¹ and 30 ± 1 s⁻¹.

B1: CcCcrPAG: triple variant of Caulobacter crescentus crotonyl-CoA carboxylase/reductase engineered to accept a variety of enoyl-CoAs, SEQ ID NO: 29 (protein)
chain: MTIQTLETTALKDLYEIGEIPPAFHVPKTMYAWSIRKERHGKPTQAMQVEVVPTWEIGEDEVLVLVMAAGVNYNGVWAALGEPISPLDGHKQPFHIAGSDASGIVWKVGAKVKRWKLGDEVVIHPNQDDGDDEECNGGDPMFSSSQRAWGYETPDGSFAQFCRVQSRQLLPRPKHLTWEESACYTLTLATAYRMLFGHKPHELKPGQNVLVWGASGGLGVFATQLAAVAGANAIGVVSSEDKREFVLSMGAKAVLNRGEFNCWGQLPKVNGPEFNDYMKESRKFGKAIWQITGNKDVDMVFEHPGEQTFPVSVFLVKRGGMVVICAGTTGFNLTMDARFLWMRQKRVQGSHGANLMQASAANQLVIDRRVDPCLSEVFPWDQIPAAHEKMLANQHLPGNMAVLVCAQRPGLRTFEEVQELSGAP
modifications: CcCcr C125P/I148A/F352G
For the molecule B1, in the data set with CcCcrPAG, the “conversion of enoyl-CoAs to aldol products” value is “catalyzed conversion of all the tested enoyl-CoAs”.

B2: CcCcr: wild type crotonyl-CoA carboxylase/reductase obtained from Caulobacter crescentus, SEQ ID NO: 2 (protein)
chain: MTIQTLETTALKDLYEIGEIPPAFHVPKTMYAWSIRKERHGKPTQAMQVEVVPTWEIGEDEVLVLVMAAGVNYNGVWAALGEPISPLDGHKQPFHIAGSDASGIVWKVGAKVKRWKLGDEVVIHCNQDDGDDEECNGGDPMFSSSQRIWGYETPDGSFAQFCRVQSRQLLPRPKHLTWEESACYTLTLATAYRMLFGHKPHELKPGQNVLVWGASGGLGVFATQLAAVAGANAIGVVSSEDKREFVLSMGAKAVLNRGEFNCWGQLPKVNGPEFNDYMKESRKFGKAIWQITGNKDVDMVFEHPGEQTFPVSVFLVKRGGMVVICAGTTGFNLTMDARFLWMRQKRVQGSHFANLMQASAANQLVIDRRVDPCLSEVFPWDQIPAAHEKMLANQHLPGNMAVLVCAQRPGLRTFEEVQELSGAP
modifications: Caulobacter crescentus CcCCR crotonyl-CoA carboxylase/reductase
As to B2, the “ability to catalyze a reductive aldol reaction” value in data set [2] is given as “able to catalyze a reductive aldol reaction”.
